In a protein production outcome set (Wang et al. 2014):

Test: label from the status in PepcDB records
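Note: failed if final PepcDB status was selected cloned or expressed and not failed if soluble or beyond.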

Sequence | protein production
MHLPHFALSSVLSLTLCAIPNLGFASSNQTEDSTQARPTWLRDIALSPDGQKIAFTYAGQIWLVPAQGGDAVALTESGVYSETPIWSPDSQSIAFTADRYGLGDVFILSIQGGESRRLTYHGAKDIPYAFSADGQQLYFSSRRLGDDKANANVKQGSFMAQLYSVPAAGGREQRVLPIAISDLAISPSHSDILYTNQPSDEQPWRKGALSDATRDIWQWSPLTGKHTQITTFRGEDRNPVWSADGSSMYYLSEQAGSFNVWQQRFDGSEPVQITDHQKLPVRFLSASLQGDLAYGFDGEIWRLKAGAKQAEKVPVSIRRSAMPDGRHNVNFNLEATEMVVAPNAAEVAIVARGDVYVVSLLSGLTQRITDTPEAERDVSFSSDGYRLIYASEREGSWNLYQSYVNDGGKSFSSSLDIIEEPVLTTEQDVIQPLYSPNLKRIVYRENRNTLKVYDIEQDKTYTLLDAHALYSYFDKDLSYQWSPDSEYIVTRDRAMSNGDIQLLKFDGSEAPINLSQSGFSEFAPQFSADGQWVYWLTDAKGLRDIDDMVVQYDVYGVALNREAKFNFNKTQEQLWLEEEIAAEKNLGPGQNPPAELTVVENKGLKQRTMRMTPTSLNIIFKHLTHDNQALIIAYQLGDSVQISEINLRSGEMTALFNRLSEDAALLAMASDDASLLIMGEHGIENLNVLTGESKFVRYEAKANFDFRAEIRLLV | failed
MHLSLLVPFLFWITGCCTAEDPVTGPEEVSGQEQGSLTVQCRYTSGWKDYKKYWCQGVPQRSCKTLVETDASEQLVKKNRVSIRDNQRDFIFTVTMEDLRMSDAGIYWCGITKGGLDPMFKVTVNIGPAIQVPITVPTMPPITSTTTIFTVTTTVKETSMFPTLTSYYSDNGHGGGDSGGGEDGVGDGFLDLSVLLPVISAVLLLLLLVASLFAWRMVRRQKKAAGPPSEQAQSLEGDLCYADLSLKQPRTSPGSSWKKGSSMSSSGKDHQEEVEYVTMAPFPREEVSYAALTLAGLGQEPTYGNTGCPITHVPRTGLEEETTEYSSIRRPLPAAMP | not failed
MHNFLIIGAFISLGILLRRFKALPEHTPFVLNKIAINVCLPALILLNAPKIAFTRDAVTAAIIPWALLALSVGLVLLGAKIWQWPRPVVGVLLLIVPLGNTSFLGVPIIRTFFGADGLPHLIVYDQIGTMMIFATYGSFILSLYGQDGTLSVSAVVRKMLLFPPSLALAAGLALKSWSYPDGLSLALHYLALPLVPVVMTAIGLQLRLRLPPHLAAPVGIGLGIKMLAAPLAVLVACRLVDMNGLAVGVSVVEAGMPPMVTAGALAVVAGMEAELAIALVGIGILCSFGSLPALFWLVSL | failed
MHPASFDDHIFRLLIEAVDDYAIYIIDAQGHILTWNNGAERNTGYNADEIIGQSFELFYTPEDLATQLPAKGLLHANQLGHYENQGWRVRKNGKRFWGHITLSALHDSEHNLQGFVQVTRDLTD | failed
MHQPHLSAEEKQHSHDHLSLDLIEAQYQLKNSAGKKNAKSVLVLVSGIELAGKGESVKQLREWVDPRYLRVKADPPQLLTTNQTFWQPYSSFIPAEGQIVVLFGNWYSDLLTTAMHVSKPLDETLFDAYVNSMRAFEQDLKNNHVDVVKVWFDLSWKSLQKRLDHIDASERQWHKLHGLDWRSKKQYETLQKLRQRFTPDWVFIDGEDEALRDREFAECILKALKDVPDHVQQADAAWTQSVVPQALLQPSSEVLEKAKYKKKLKKLTRRVADALRYDQRNVIVVFEGMDAAGKGGSIKRIVKRLDPREYDIFTISAPEKYELRHPYLWRFWTKLQNCSDIRIFDRSWYGRVLVERVEAFASDIEWQRAYDEINRFEKDLTDSQTVIVKIWLSISKEEQEKRFEAREKTPHKRFKITEDDWRNRAKWDEYLNAAADMFEHTSTDCAPWTIIATDDKPTARIKMLKAILKQLKSK | failed
MHQSVIDPQGLIDLKILIVIALCLLFSPHIAKILRLPLSATEIILGAIIAYFGFIGKSENFALLANVGFYYLMFIAGMEVNLRAFFNMDKEIAKKSFFYIFLLYALSSLIVWIFGLSLVFVIIIPVMSVGLLSLLFKDFGKECYWLNIAMIVATLAEVISIVLLTIAGAFLREGTGIIDVAQSILYLNIFLGLCLLGFKMLGVLFWWYPQLKVVLMPWEDKNEKDIRFCMAIFILIIVAMVITKLEIVLGSFIAGSFIATFFDHKKDLEHKLSTFGHGFLIPIFFIHIGSTFDLKMILDYKIVLQAFLLMFVMVGLRILCASVFLKRIGFKNMILFGLSHSMPLTLLIATATLGYSGKVIDEKLYSALILTALFEAIIVMSMIKFLSNSKK | failed
MHREQAPEHRDRTSEHRDRTPERRDRTPEPPGRASGPAAPAPASEPPGTDLGWLLEDLVARTDHVRQAVLLTADGLPLSASDGMRARDIEHLAAVCSGFHSLARSAGERFAAGDVRQTMVMLDDAYLFITPAGDGSRLAVLSEVQTDVGQLAHEMALLVRRVGRHMDAAVRSAVHSAGS | failed
MHRKPICAALAIISAATLTTSLAYGMTAVELPAGAPADKPVGKLEQVQAFYDAMPTGVTVTETGRIFVNFPRWGDKVPFTVGEVRDGKVVAYPDLAVNHENPKDPGDGLISVQSVVADGKGRVWLLDTAAPEFAAPRPQGAKLVAVDLATNKIVKRLVFPDNVILPSTYVNDMRFDFRQGSQGTVYVTDSSVSGPGAIIVMDIASGHAVRRLSGAKATSADPAFVPVVEGVPVLGDGPDGTRKPVHVAADGIALSADGKTLYFSPLSSRHLYSVATELLNDSAVNEQQLAAAVQDLGEKGASDGLEADADGAVYAGDYEHNAIRKRLPNGVWQTVAHDPRMLWPDTLSIGPDGYLYFIVNQLHRQAGFNSGHDQRKKPYSLLRVKVATAPAPTH | failed
MHWTIIGGGIQGTAIAQKLLSSGLTTDLLTIIDPHETFCQRFNSYTNRIEMPYLRSPIVHHVHPQPFHLKQFAKQHQYTNAFYGPYQRPELTMFMNHIAHASKQYQLEDCLVQGLVQTLDKQEDKWHIKLEDGQIITTDCVVIAIGSTNIPFMPDILKDKQNVNHIFEKEHDQVVYDKTDHIVGSGITAAHLALKLLNHDNDKKI | failed
MHYDVIVIGGGPSGLMAAIGAAEEGANVLLLDKGNKLGRKLAISGGGRCNVTNRLPLDEIVKHIPGNGRFLYSAFSIFNNEDIITFFENLGVKLKEEDPGRMFPVSNKAQSVVDALLTRLKDLGVKIRTNTPVETIEYENGQTKAVILQTGEVLETNHVVIAVGGKSVPQTGSTGDGYAWAEKAGHTITELFPTEVPILSNEPFIRDRSLQGLALRDINLSVLNPKGKAIISHKMDMLFTHFGLSGPAALRCSQFVVKALKKFKTNTIQMSIDALPEENSEQLFQRMLKQMKEDPKKGIKNVLKGYVPERYFLFLLEKNEIDGSEQAGQVSHEKIRALVKDFKEFTVNVNGTQSIEKAFVTGGGVSVKEINPKEMSSKFTNGLYFCGEVLDIHGYTGGYNITSALVTGRIAGTTAGENAKMQY | not failed
MHYHGSCHCGTIRFDVEGELTGAMSCNCSICRRKGALLWFVPRDHLRLATPDEQIATYTFNRHLIKHRFCPTCGIHTHGEGVDQQGRAMAAINIRCLDDVDLDAVAVHQYDGRAA | failed
MIARIPKDIPDLPAIPGMPVLMPSAVPAAAVVAPTRRPLTTAFRLLVALAATAGVTIDLILGSPLRVLTYFTIQSSVLVALTFTLSAWRAWAARRPLPALLTGGTLLYAVITGLVYHLLLAHEPAPFTMTGQAGPLTGWQALTNQLLHTAVPVAVVLDWLLLTGSGRLRLRQASAWLLYPLAYLALTLARGELILPGTPGRYLYPFLDVEQHGYKSVLGNALLLGLAFYALAVLLVTLDRVRPNPLRRRAKNGFRLQPPVG | failed
MICYKCGQDAGWNDKCPVCGADLSLFKRAIRISNSYYNDGLQKAQVRNLSGAIISLRQSLKFYKYNIQARNLLGLIYYEMGEMVDALSEWVISANYQPDDNLAKKYIDQIHNNRNQLETINQTIKKYNQALTYCKQDSKDLAVIQLRKVLSLNPKLVKGHQLLALLYLEEGHLDKAKKALRDAGKIDTDNTTTLRYLKEVNRRLKEKGTERKKKNDDLISYQSGNETIIMPKRFRESSMWANILYIIIGLVVGVAVTCFLVVPGIKSQAKTDAKKQLLSANDTISTNGQTISGLNDQIDKLKKELEDEKKKNDGVSDQISTYEALLNAYVYYTTNDVIKAGEALENINTSYLSDSAKQTYDTLNGSIADSYKEALYSQAYSSYSSGDYQSAIPTFQKLVGMDEAYRDGSAAYYLAQSFRKSGDLASAKPYYQYVVDNYAGTEKARTSKNYLAQEQQ | failed
MIDFNVDSARCTRCGQCVADCPSRIIVMATGEYPSIAPGKEFSCLRCEHCLAVCPEAAISILGFSPDGSTPLKGNLPETDQLETLIAGRRSVRRYCPENLSPELIDKLITVASCAPTGVNARKVRFTVLDDREKTAHFRDEVMERLVRLLEEEALPESKAYYARFVKVWQKHKIDLVFRDAPHLLIATAPKSLSTPRQDCVIALTTFELYAQACGIGTLWNGIATWAIEEMLPEMRQRLGIPDDHAFGYAMLFGKPAVRYARTVQHHPPEIYRVPLEHHHHHH | not failed
MIDIHCHILPEIDDGPSSLEESLVMAREAVKEGITKIIATPHHLHPSYNNKAAVVKEKVRKLNEAIQKENIPLEILPGQEVRISGDVMDGLVSGDILTLADQGKYLFVEFSSNHVSRYADKLFFQLLSQDIIPIIVHPERNHEFLKNPGLLYDLVNGGALTQITTSSLTGHLGKKIKKFTEQIIEADLTHFLASDAHNVTERTFRIREAFALVEKNYGSSKAYEFQENAELLVENQHVMGPPPQPIVKKKLLGIF | failed
MIDIKVDPRLKSQRFRQEREADWRRLERLIGKVEKGSIADLSDEDLLAAPVLYRSALSALSVARATSLDRALIAYLETLCARAYFFVYGSRETLWGQLKGFFAGDWPAAVRGLWRETLVSAALMALGVMIAAWLVGHDPDWFYAFVPRELAGGRDPAATTEALAATLGGKDASGLTVFATFLFTHNAQVALLAFALGFALCVPTAGLVLYNGAMLGAFLALFASRGLGIELGGWLLIHGVTELFAVILAGAAGLRIGWAAAFPGERRRLDALAEAGRHAATVMGGVVVMLFLAGLLEGFGRQLITDTAARYGVAAATALMWGLYFYGPRRHG | failed
MIDLDFRKLTIEECLKLSEEEREKLPQLSLETIKRLDPHVKAFISVRENVSVEKKGKFWGIPVAIKDNILTLGMRTTCASRILENYESVFDATVVKKMKEAGFVVVGKANLDEFAMGSSTERSAFFPTRNPWDLERVPGGSSGGSAAAVSAGMVVAALGSDTGGSVRQPASLCGVVGYKPTYGLVSRYGLVAFASSLDQIGPITKTVRDAAILMEIISGRDENDATTVNRKVDFLSEIEEGVSGMKFAVPEEIYEHDIEEGVSERFEEALKLLERLGAKVERVKIPHIKYSVATYYVIAPAEASSNLARFDGVKYGLRIKEKGLREMYMKTRNVGFGEEVRRRIMIGTFTLSAAYYEAYFNKAMKVRRKISDELNEVLSQYDAILTPTSPVTAFKIGEIKDPLTYYLMDIFTIPANLAGLPAISVPFGFSNNLPVGVQVIGRRFADGKVFRIARAIEKNSPYNENGMFPLPEVKA | not failed
MIDPREPIVTPVPVEELRPTQITVGMREVALKRQMIREQDAKKKTGAFLGKHMVPVVLGPKNRNYVTDHHHLARALLEEGVKDVLVTVISDLSALDKDTFLFVLDNRGWMHPFDESGRRRDYSAIPKTIGELIDDPYRSMAGELRRMGGFAKDTTPFSEFIWADFLRRRIDRNAVAKNFDKAMKEALSLAKGKDADYLPGWCGPTSDLEHHHHHH | not failed
MIDVKSIILIVLDGLGDRPGEILGYRTPLQAAYHPNMNRMASLGMTGLMHPISPGIRSGSDTSHMSLLGYDPRVYYQGRGPFEALGLHMDMKPGDLAFRANFATNRDGKIIDRRAGRINAGNDQLASAISIDIGNYKFRVKSGVEHRAALVVSGPNLSDKISDSDPHSEGKPPEPIRPLDPSADSTAKIMNEYLKRIREILRDHPVNVEREKNGQIPGNELLIRSAGKVPDIPSFQEKNGITGACVVGSPWLKGLCRLLGMAVIDVPGAAGTINSNYTGKIKTAIDASKRYDFVLVNIKATDVAGHDGDYELKRRVIEDIDIAMEPLLGQSDRIVVAITGDHSTPCSVKDHSGDPVPIVFYTDGIYSDDVKLFDEVSAMKGALRITTQDVLNILMEMAGRAEKFGS | not failed
